This series in a line: soluble on expression in E. coli; label from the status in PepcDB or PDB records.
For “MGSDKIHHHHHHMNQFHLTEDQQDCLQELINIAMGQASDQLARYLDTFVYLKVPSIESVEAKDLMKTLSQQKNTVAVVSQGFFGYEGIRGEALLVYKEENSGRIADLLGYEPDELSQDEQLIDISSILTTTFLNVFAQQINNQLSYNAPKLLPNVQEILSEHLQQMPFTWDLALKVNINYQVTDYSFNCNMILLIPETAITNIKHVLDRILEEF”, the “soluble on expression in E. coli” value is recorded as “not soluble”.
The same measure for “MLSALLIRNIRNASKLASVAGPNSDRIVNVKWSDGKTGVFPLIWLRDTSPDPSTYTISPAMTARKLTMLEFDVEQNARKLWIDEDANCLKIEWESGVLSEFPSEWLKIRNPSDQEARRRRRKVYLFPEQTWGKAEIEGKLKKFSHEEFMKNEQVVHDFLQAVCIDGIAVLKGAPQGVRGAVEAIGDRIGMIKRTHFGLVFEVSLKADASNMAYASNGGLPFHTDFPSLSHPPQLQMLHMLQSAEEGGHSLFVDGFHVAEQLRVEKPEIFKILTTQSMEYIEEGYDVHEINGKTIRFDYDMCARHKVIRLNDDGKVNKIQFGNAMRSWFYDCEPSKVQDVYRAMKTFTEYCYQPRNMLKFRLEDGDTVLWANQRLLHTRDGFRNAPEKARTLTGCYFDWDIVKSRVRFLRDKLSLEQNQPSA”: “not soluble”; for “MGSDKIHHHHHHMEWQAEQAYNHLPPLPLDSKLAELAETLPILKACIPARAALAELKQAGELLPNQGLLINLLPLLEAQGSSEIENIVTTTDKLFQYAQEDSQADPMTKEALRYRTALYQCFTQLSNRPLCVTTALEICSTIKSVQMDVRKVPGTSLTNQATGEVIYTPPAGESVIRDLLSNWEAFLHNQDDVDPLIKMAMAHYQFEAIHPFIDGNGRTGRVLNILYLIDQQLLSAPILYLSRYIVAHKQDYYRLLLNVTTQQEWQPWIIFILNAVEQTAKWTTHKIAAARELIAHTTEYVRQQLPKIYSHELVQVIFEQPYCRIQNLVESGLAKRQTASVYLKQLCDIGVLEEVQSGKEKLFVHPKFVTLMTKDSNQFSRYAL”: “not soluble”.
In the case of “MKIPASSPQDTTNNNNNTNSTDSNHLSMDEHVMRSMDWDSIMKELELDDDSAPNSLKTGFTTTTTDSTILPLYAVDSNLPGFPDQIQPSDFESSSDVYPGQNQTTGYGFNSLDSVDNGGFDFIEDLIRVVDCVESDELQLAQVVLSRLNQRLRSPAGRPLQRAAFYFKEALGSFLTGSNRNPIRLSSWSEIVQRIRAIKEYSGISPIPLFSHFTANQAILDSLSSQSSSPFVHVVDFEIGFGGQYASLMREITEKSVSGGFLRVTAVVAEECAVETRLVKENLTQFAAEMKIRFQIEFVLMKTFEMLSFKAIRFVEGERTVVLISPAIFRRLSGITDFVNNLRRVSPKVVVFVDSEGWTEIAGSGSFRREFVSALEFYTMVLESLDAAAPPGDLVKKIVEAFVLRPKISAAVETAADRRHTGEMTWREAFCAAGMRPIQQSQFADFQAECLLEKAQVRGFHVAKRQGELVLCWHGRALVATSAWRF”, the “soluble on expression in E. coli” value is “soluble”.
In the case of “GMMQKPITEIIIVGGGTAGWITAGLLAAEHNVDKGVLAHSPKLNITLIESPDVATIGVGEGTWPSMRSTLSKIGIDENDFIRQCDASFKQGSRFINWCKDPQSNVADSYLHPFSLPHGHQELDLCPYWLPHAEQVSFAEAVCSQQVLTQLGLAPKSIVTAQYHFQNNYGYHLNAAKFSQLLTEHCTQKLGVTHIRDHVSQIINNQHGDIEKLITKQNGEISGQLFIDCTGAKSLLLGEHLQVPFLSQKSVLFNDRALAIQVPYSDANSPIASCTHSTAQPNGWIWDIGLPTRKGVGYVYSSSHTNDIDAQKTLFNYLGVDGAAADKLEPRQLAINPGYRAKCWQNNCIAIGMAAGFIEPLEASALALIEWTASTLAQQLPPNRMVMDTISARVNERYQQHWQQIIDFLKLHYVISQRQEDRYWRDHRESNSIPDSLQAMLELWRYQTPSQQDISYKEALFPAASFQYVLYGMSFNTQLPTHVKPSMQQLAQRLFNDNQQRTQALSKNLPTNRELLDKVAQYGFPKL”, the “soluble on expression in E. coli” value was “soluble”.
The entry for “MYAMNLARYKYCPDIKEKGLSGSPRLILFTSAECHYSMKKAASFLGIGTENVCFVETDGRGKMIPEELEKQVWQARKEGAAPFLVCATSGTTVLGAFDPLDEIADICERHSLWLHVDASWGGSALMSRKHRKLLHGIHRADSVAWNPHKMLMAGIQCCALLVKDKSDLLKKCYSAKASYLFQQDKFYDVSYDTGDKSIQCSRRPDAFKFWMTWKALGTLGLEERVNRALALSRYLVDEIKKREGFKLLMEPEYANICFWYIPPSLREMEEGPEFWAKLNLVAPAIKERMMKKGSLMLGYQPHRGKVNFFRQVVISPQVSREDMDFLLDEIDLLGKDM” is “soluble”; for “MWRVGVYSSLRGYKRLNFCCEMLIAAYPKVGECAREGLMDKEVCINAAKGRFLGLRLPELFGGSDMRLNRSCRRRNMKLAAWCMLIQCDSRGGNHAAEVREIGDITKIAICQQCDFECAGPSANFKVTRLQGLRTLKAANRSESLNVEGCYALQSLLM” it is “not soluble”.
Take “MGSDKIHHHHHHNKSEDKLSGDDFWAQGNETNAEAFLLSIYNSFRNATMSQRPFLTYSGDMRCAPITAYSTGDKYVAYLANNDMGELRNTYPDDARGGLIMQWDVFYTAIQDANILLAEIDKVPGMDELKRSRFKAEAIFMRSLSYFFIVRAFGDVPYYTNAYNEAPLPRTNMVIVLQNCLADLQPLLDDDPGAEVLPWSYSSYSSKGIRASRGSVIALMMHINLWLVQFDAQNKEQYYRNVVSLGEELERNNGAYSLLDINRSSVIFAGGSDEGLFEIAQNINFNEIFMMNAKFSDNVSYSCLNKSMPLFCYSGDYLMTLFPMYEDDARKELWFDEKIYSTSVSSSAPKEIKKFWNIDTYGNGTITSNSGNQIVFRYAGALLLYAEALAALGTNDTKACELLNRVRNRAHASEINTSGSELMDAIFWERCRELIGEGHYYYDLVRTGKVYNRNYCMNPMTRTNFNVGAWTWPIHRNALKNNTQIGLNLFWE”: the “soluble on expression in E. coli” value is reported as “not soluble”.
The entry for “MAHHHHHHMSAGSDARIYRCTFIKKEAVKKVIYRKYYRHKKIDTKIRKLRVSNEIKFTKKLASLNIDVPYIYFVDAKEKSLYFEYVKGCTINFILKNLKEYEPKIPICVGMVLAKIHNGNIIHGDYTTSNLILRNSFIQQNNLLDLKNNNSPYNFSDLENVKLCVIDFGLSFLSSSIEDKAVDLFVLLKTIKSFHSEFPSLEEDILEGYKMKSDNVNDIFTKLEIVKQRGRKRPMVG” is “not soluble”; for “MKTLLTSATLLVTTLSTPLMAKEADIQSLVNAAQKEGQVYSVGMPGSWANWKDTWNDLNKLYGLKHQDTDMSSAQEIAKFAAEKNNATADIGDIGFAFARVAVKKGVTQAYKPTTWDSIPDWAKDKDGHWALAYTGTISFISNNKLVKNPPTSWDDLLEGNYKVSVGDVGVAAQANNAVLAAAFAKGGDESNLKPAIKFFAELAKQGRLSYTDPGLANLEKGEVEVALLWDFNALNYRDKLGRDRFSVNIPQDGSVISGYTTIINKFAKNPNSAKLAREYIFSDQGQINLAEGYARPIRSDVVLPQSIQDKLIPNDQYTNVQPVSDFKAWEKSARKLPRQWQENVLINQQ” it is “not soluble”; for “MASESAVKDSQPSLDLASATSGDKIVTAQENGKAPDGQTVAGEVMGPQRPRSNSGRELTDEEILASVMIKNLDTGEEIPLSLAEEKLPTGINPLTLHIMRRTKEYVSNDAAQSDDEEKLQSQPTDTDGGRLKQKTTQLKKFLGKSVKRAKHLAEEYGERAINKVKSVRDEVFHTDQDDPSSSDDEGMPYTRPVKFKAAHGFKGPYDFDQIKVVQDLSGEHMGAVWTMKFSHCGRLLASAGQDNVVRIWALKNAFDYFNNMRMKYNTEGRVSPSPSQESLSSSKSDTDTGVCSGTDEDPDDKNAPFRQRPFCKYKGHTADLLDLSWSKNYFLLSSSMDKTVRLWHISRRECLCCFQHIDFVTAIAFHPRDDRYFLSGSLDGKLRLWNIPDKKVALWNEVDGQTKLITAANFCQNGKYAVIGTYDGRCIFYDTEHLKYHTQIHVRSTRGRNKVGRKITGIEPLPGENKILVTSNDSRIRLYDLRDLSLSMKYKGYVNSSSQIKASFSHDFTYLVSGSEDKYVYIWSTYHDLSKFTSVRRDRNDFWEGIKAHNAVVTSAIFAPNPSLMLSLDVQSEKSEGNEKSEDAEVLDATPSGIMKTDNTEVLLSADFTGAIKVFVNKRKNVS” it is “not soluble”.
Regarding “MRLEKFIHLLGERGFDGALISPGTNLYYLTGLRLHEVGERLAILAVSAEGDYRFLAPSLYENVVNNFPATFWHDGENPYAKLREILEELGISKGRILIEDTMRADWLIGIMKLGKFTFQPLSSLIKELRMIKDKEEVKMMEHASRIADKVFEEILTWDLIGMKERELALKIELLIRELSDGIAFEPIVASGENAANPHHEPGERKIRKGDIIILDYGARWKGYCSDITRTIGLGELDERLVKIYEVVKDAQESAFKAVREGIKAKDVDSRAREVISKAGYGEYFIHRTGHGLGLDVHEEPYIGPDGEVILKNGMTFTIEPGIYVPGLGGVRIEDDIVVDEGKGRRLTKAERELIIL”, the “soluble on expression in E. coli” value is “soluble”.
As for “MGSDKIHHHHHHMSDTDKQAFLTSVSSKEQVKKVIEPRKVTKCPHCQSTHFVKNGKDCGNQRFLCRDCKKSFVEQTGTILYNTQKDIEVWEKYIHCMIEKYPLRKCAEICKINLATAFTWRHKILDALQNMMNEVELDGIVQADETYSTISYKGHHKNFNLPRPAHKRGTRATKRGISKEQVCVPCGINLDGKSVARISNLGKPSLKNIN”, the “soluble on expression in E. coli” value is on record as “not soluble”.
On to “MGSDKIHHHHHHMSDITSKVSLTNVAADNTVSSEQAKDINSIGQDLGIDMMASLQQAPFDEMLIREYLLDNPDFFNRYPELLVAMRVPHAERGAVSLVERRQELLRQRVSQLEEEITSLMNIATHNEKIFKFNTELSFKMLASQDLGELRLVLSEGLKNEFGFSHVRLITVHDIDSELAKIWRHRVQSGYYFGRLTQSESKRLFGSEVGSVALTKLSDENGQVIFAIASNDPTHFHPDMDSLLFSQLRRLLDHMLPKM”, for which the “soluble on expression in E. coli” value is recorded as “not soluble”.
The same measure for “LLTPQYISEAKIYVLSKETTLTSLADLQMGTQLTQDYKELIGSRPVMQEVINTLNLDITYRQLAEKLKLENPKDTRILYLTVTDPNPYMAKAIVDEIANAASDYIGEIMEMTPPKLIEDGMVATVQTSPNVKKN”: “not soluble”.
Regarding “MSLRIPTKPSPVFDAATDPAGSGKDLGNLPDWDLSDLYAAPDAPEVTRDLDRLKTLCADFAERYEGKLADLDAQGMLTCVTAHEEIDRIAGRLMSYAGLRYYQVTTDGERAQFLQNCQEKLTDYTTPLVFFSLEINRIPDDKLDALFEANADLARYKPIFDRLRAMRPYQLSDELEKFLHDQSAVGSAAWNKLFDETMARLTFSPEGEDEDLSLEATLNLLSEQKRSRREAGARELARVFGENLPLFARVHNTLAKEKEIEDRWRKMPSAQTARHLSNHVEPEVVEALRNAVVDAYPKLSHRYYALKAKWLGLETMEVWDRNAPLPMEEERVIDWPKAREMVLSAYAGFDPEMAAIAEPFFDRGWIDAGVKPGKAPGAFAHPTVTDAHPYVLLNYLGKPRDVMTLAHELGHGVHQVLAAGQGELLADTPLTLAETASVFGEMLTFRKLLAEAPDAAQKKVLLAGKVEDMINTVVRQIAFYDFECKLHEARRTRGELTTSQINELWMSVQGESLGPAFTFMDGYETFWSYIPHFVHSPFYVYAYAFGDGLVNALYAVYEEGDPDFQKKYFEMLKAGGSKHHSELLKPFGLDASDPKFWDKGLSMISGFIDELEAMEDEGHHHHHH”, the “soluble on expression in E. coli” value is reported as “soluble”.
Take “MADSVLKEVNCGRPEKIPKLDKACEGSKSSWKHLKLGNVEDDEYLRQYCLFHYEFHKSEGFTVDWEKYDYMFHIRPLENSPPISDIRTNADVIRDVTLFAIEKHNEAHGSKLVFVEHVSANFKFANGLLCWLTFWATDMASSAPTSQIYQVELWRRGKQFEIPIFRVKPKDEEMDDVEVKPPSPMPYDDYDKPPVVFVRAAPEDGVPFVFDRTGALYDLYRSGL”: the “soluble on expression in E. coli” value was “soluble”.
On to “GKVGDRPIEQQLALGYIKALTEHDYQTLSKYYNRDSVFYDKTADTKYIGTRSIIAFLQRSHEGVLEFDFNIEHMFNTGPLVVMIGNYHLRGPGEQFGKPGKIIDIAIPGVTTLKFDPNTQRLTEQVDLMDYQTMSDQLQSQ”, for which the “soluble on expression in E. coli” value was “soluble”.

The values above are taken from the DeepSol protein solubility set.
